The source of these data is patent KR20220013311A (dated 2022).

In assay [1] the target is T1, SARS-CoV-2 바이러스 표면 단백질 (RBD) (SARS-CoV-2, UniProt P0DTC2 319-541). Description: BLI (Octet), full IgG against RBD; printed as kdis.
Assay [2] has as its target T1, SARS-CoV-2 바이러스 표면 단백질 (RBD). Put plainly: BLI (Octet), full IgG against RBD. On the technique in general: Biolayer interferometry detects binding as a change in optical thickness at a sensor tip.
For assay [3] the target is unchanged. Description: BLI (Octet), full IgG against SARS-CoV-2 RBD.

B1: No. 32 항체 (Full IgG) (antibody, V domains shown)
VH: EVQLVQSGGGLIQPGGSLRLSCAASEFIVSSNYMTWVRQAPGKGLEWVSIIYPGGSTYYADSVKGRFTISRDNSKNTLYLRMNSLRAEDTAVYYCARDLPLTGTTLDYWGQGTLVTVSS
VL: not shown
One may read the koff as the rate constant with which the complex falls apart. A lower koff goes with slow dissociation. In general, Kd refers to the concentration at which binding is half-saturated. High values mean a looser complex, low ones a tighter complex. The term kon denotes a measure of how fast the partners come together. A high value points to faster complex formation. B1 gave a koff in assay [1] of 0.000193 s⁻¹. Further, in assay [2], the affinity, expressed as Kd, was 0.305 nM and the kon was found to be 633000 M⁻¹ s⁻¹. The Kd in assay [3] turned out to be 0.147 nM.
